Assay results reported in the supplement of paper PMC9170038.

Tested on: MS2 coat protein
Assay: apparent KD of MS2 coat protein; designed switch direction (-1 OFF switch, 1 ON switch): -1; higher = weaker reporter binding
In short: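 The buffer was Tris-HCl pH 7.5 with KCl, MgCl2, BSA, DTT, tRNA and Tween-20. In it, SNAP-549-labelled MS2 coat protein was titrated in doubling steps from 0.7 or 1.5 nM to 3 µM over chip-bound RNA switches transcribed by stalled E. coli RNA polymerase on Illumina chips. Apparent KD is the per-design median over clusters of curve fits to normalised fluorescence.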

[1] = Eterna round: R95, input ligand: FMN 200 uM
[2] = Eterna round: R95, input ligand: microRNA oligo, concentration not stated
[3] = Eterna round: R95, input ligand: none
[4] = input ligand: microRNA oligo, concentration not stated

Sequence	apparent KD of MS2 coat protein (input ligand: FMN 200 uM)	apparent KD of MS2 coat protein (input ligand: none)	apparent KD of MS2 coat protein [1]	apparent KD of MS2 coat protein [2]	apparent KD of MS2 coat protein [3]	apparent KD of MS2 coat protein [4]
UUUUAACAAGCGAGAUCCUACAUGAGGAUCACCCAUGUAUGUCAUGGUUUCCAUGGUCUUUUUGCUCGUCUUGUGUG [jl TITIN mod 7] (Eterna round: R97, puzzle: Sensor, turn-off variant 1)	40.9 nM	44.1 nM				
AUACCAUGCCGCCUAAUAGCUUUUUGCUCGUCUUAUAAAACAUGAGGAUCACCCAUGUAAAACAUGUGGCGUGACCC [Maridi] (puzzle: Sensor v3, turn-off variant 2)			163 nM	12.5 nM	97.4 nM	
AAUUCACAAGCGAGAUCCCACAUGAGGAUCACCCAUGUGCUCGUCUUAUAAGGUACUGUGACGAGAGUCACGGUACC [Mat - Sensor, turn-off var - Eli Mod - D88] (Eterna round: R97, puzzle: Sensor, turn-off variant 1)	15.7 nM	16 nM				
GUAGAUCGAGUUAGGAUAUGAUUAAAAUCCGGAUAUCAGAAGGAACUUGAGGAUCACCCAAGUAUAGAUGAUUC [JR_BMEx4_Sub056] (Eterna round: R97, puzzle: Brourd's mod of Exclusion 4)	216 nM	47.9 nM				
CUGCUGGAGUUUUGCUUUGGUCGUACAUGAGGAUCACCCAUGUAGGAUAUGGUAAAAUUCGCCUGCUAGAAGGAUAGAGUGGUC [salish99_ExNG3_r04_621] (Eterna round: R96, puzzle: Exclusion NG 3)	35.5 nM	32.4 nM				23 nM
AAAUAACGAGGAUAUAGGGUCCGGAACAUGAGGAUCACCCAUGUAUUGGAAACAACGUGGUUAGAAGGCGUUGCCC [EX5 A.15] (Eterna round: R97, puzzle: Exclusion 5)	25.6 nM	28.7 nM				
AGGUUGGCGUGAGGAUAUUGGAAAGGAAGUGUACAAGAAGGUACGGACCUAAAACAUGAGGAUCACCCAUGUGGUCCUUAUGCC [PowerStrip EXNG 1.26] (Eterna round: R96, puzzle: Exclusion NG 1)	14 nM	19.6 nM				11.2 nM
CGUCUGUAAGGAUAUGGUUGCAUCAACAUGAGGAUCACCCAUGUAACUUGGGACUAGUGAUUAGAAGGUACGAACG [EX5 #59] (Eterna round: R97, puzzle: Exclusion 5)	218 nM	255 nM				
CUGAGUCUAGGAUAUACAUGAGGAUCACCCAUGUAAAGUAGCUUGCGUACAGGCAGAUGUAGAAGGAGAUUCGG [Mod of JL 10 - Jieux - Exclusion 3] (Eterna round: R97, puzzle: Exclusion 3)	33.2 nM	24.6 nM				
GGAAGUAGAAACCGAUCCUACAUGAGGAUCACCCAUGUAGCAAGACGUGCACGCGAAGCUCGUCAGACUACCAGAAC [salish99_TOv1_r3_012] (puzzle: Sensor v3, turn-off variant 1)			204 nM	383 nM	521 nM	
ACAUUGGUAGUGAGGAUAUCGGUGAGAUAGAAUGACGAGAAGGCACAUGAGGAUCACCCAUGUAAGAUUGGGCA [JR_BMEx4_Sub042] (Eterna round: R97, puzzle: Brourd's mod of Exclusion 4)	286 nM	251 nM				
UAUUUGUCAGGAUAUGAGUCGUAGAACAAUAGUACUACGUCUCAGAAGGGACAUGAGGAUCACCCAUGUGCCUC [Fiskers Ex 4 Super Stable 44 mod 29] (Eterna round: R96, puzzle: Exclusion 4)	276 nM	28.9 nM				24.3 nM
CAGUACUGAGGAUAUACAUGAGGAUCACCCAUGUAAUAAGGUUAGGAAACUAACCUAUGUAGAAGGCAGUACUG [Eli x3 4.07] (Eterna round: R97, puzzle: Exclusion 3)	13.2 nM	14.7 nM				
